# Results published in the nanobody polyreactivity screen of Harvey et al. (2022).
# Test: yeast display, Sf9 membrane polyspecificity reagent, FACS + sequencing; frameworks hold sequencing errors
# Summary of the method: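 Galactose-induced (36–48 hours) yeast carrying a synthetic nanobody display library were exposed to 10% biotinylated, detergent-solubilized Sf9 membrane reagent at 4 °C for 1 hour. FACS followed streptavidin microbead enrichment, using low and high (top ~1%) gates for expression (anti-HA) and reagent binding (streptavidin). Colony PCR, MiSeq 2 × 250 sequencing and CDR-length filtering followed. Labels for polyreactivity reflect the gate of origin.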
row,Sequence,polyreactivity (PSR sort gate)
1,QVQLVESGGGLVQAGGSLRLSCAASGLSSLRMLWDGRDRRLGKKGSWLPLITSGGDSTNYADSVKGRFTISRDNAKNTVYLQMNSLKPEDTAVYYCAADLDYPYGYWGQGTQVTVSS,low polyreactivity
2,QVQLVESGGGLVQAGGSLRLSCAASGLTCSRNAMGWYRQAPGKERELVAAINWSGGSTYYADSVKGRFTISRDNAKNTVYLQMNSLKPEDTAVYYCAAEYAPSPYDWGYEYWGQGTQVTLSS,high polyreactivity
3,QVQLVESGGGLVQAGGSLRLSCAASGLTFADYAMGWYRKAPGKERELVAAISRRGGSTYYADSVKGRFTISRDNAKNTVYLQMNSLKPEDTAVYYCNAAYVYGDQARGGYWGQGTQVTVSS,high polyreactivity
4,QVQLVESGGGLVQAGGSLRLSCAASGLTFAGYAMGWYRQAPGKERELVASITTSGGSTHNADSVKGRFTISRDNEKNTVYVQMNSLKPEDTAVYYCAAECYPGDTELIGAFDYWGQGTQVTVSS,low polyreactivity
5,QVQLVESGGGLVQAGGSLRLSCAASGLTFALYAMGWYRQAPGQERELVAAIDWSGGITYYADSVKGRFTISRDHAKNTVYLQMNSLKPEDTAVYYCAARPSTFKYKYGYWGQGTQVTVSS,high polyreactivity
6,QVQLVESGGGLVQAGGSLRLSCAASGLTFANYAMGWYRQAPGKERELVAAISTWSGGSTYYADSVKGRFTISRDNAKNTVYLQMNSLKPEDTAVYYCAARRYSRGRLPYDYGGQGTQVTVSS,high polyreactivity
7,QVQLVESGGGLVQAGGSLRLSCAASGLTFARTAKGWYRQAPGKERALVAAISSRGGSTYYADSVKGRFTISRDIANNTVYLQMNSLKPEDTAVYYCATSQVLRRDRYDYWGQGTQVTVSS,high polyreactivity
8,QVQLVESGGGLVQAGGSLRLSCAASGLTFASNAMGWYRQAPGKERELVAAISWSDGSTYYADSVKGRFTISRDNAKNTVYLQMNSLKPEDTAVYYCAAEPPGFRTSRVGYWGQGTQVTVSS,low polyreactivity
9,QVQLVESGGGLVQAGGSLRLSCAASGLTFASYAMGWYRQAPGKERELVARISRSGGSTYYADSVKGRFTISRDNAKNTVYLQMKSLKPEDTAVYYCAADYIFRRYPVGGIYDYDYWGQGTQVSVSS,high polyreactivity
10,QVQLVESGGGLVQAGGSLRLSCAASGLTFAYNTMGWYRQAPGKEREFVASISSSGGNTYYADAVKGRFTISRDNAKNTVYLQMNSLKPEDTAVYYCAAKKKYHYFASYKRFEYWGQGTQVTVSS,low polyreactivity
11,QVQLVESGGGLVQAGGSLRLSCAASGLTFAYYAMGWYRQAPGKERELVATISRSGSTYYADSVKGRFTISRDNAKNTVYLQMNSLKPEDTAVDYCATAYHHYVYRQYTFGRGIYDFWGQGTQVTVSS,high polyreactivity
12,QVQLVESGGGLVQAGGSLRLSCAASGLTFAYYDMGWYRQAPGKERELVAAITSGGTTNYADSVKGRFTISRDNAKNTVYLQMNSLKPEDTAVYYCYADYYSRIVGVRIYDYWGQGTQVTVSS,low polyreactivity
13,QVQLVESGGGLVQAGGSLRLSCAASGLTFDGYAMGWYRQAPGKERELVARITRNGGITYYADSVKGRFTISRDNAKNTVYLQMNSLKPEDTAVYYCAAGQRLWKYYGVIGWTVTNYYYWGQGTQVTVSS,high polyreactivity
14,QVQLVESGGGLVQAGGSLRLSCAASGLTFDKYTMGWYRQAPGKERELVARISTSGSRTYYADSVKGRFTISRDNAKNTVYLQMNSLKPEDTAVYYCNKDGWIRRRRGYDYWGQGTQVTVSS,high polyreactivity
15,QVQLVESGGGLVQAGGSLRLSCAASGLTFDRYGMGWYRQAPGKERELVAAIDGSGTSTYYADSVKGRFTISRDNAKNTVYLQMNSLKPEDTAVYYCNAYWTYEFPSYDYWGQGTQVTVSS,low polyreactivity
16,QVQLVESGGGLVQAGGSLRLSCAASGLTFDVYTMGWYRQAPGKETEFVAAITWDGGITYYADSVKGRFTISRDNAKNSVYLQMNSLKPEDTAVYYCAADYALGEVYWYNYWGLGTQVTVSS,low polyreactivity
